In this test the target is T1, NXF1 (residues 117–619) (human, UniProt Q9UBU9 117-619).
T1 sequence: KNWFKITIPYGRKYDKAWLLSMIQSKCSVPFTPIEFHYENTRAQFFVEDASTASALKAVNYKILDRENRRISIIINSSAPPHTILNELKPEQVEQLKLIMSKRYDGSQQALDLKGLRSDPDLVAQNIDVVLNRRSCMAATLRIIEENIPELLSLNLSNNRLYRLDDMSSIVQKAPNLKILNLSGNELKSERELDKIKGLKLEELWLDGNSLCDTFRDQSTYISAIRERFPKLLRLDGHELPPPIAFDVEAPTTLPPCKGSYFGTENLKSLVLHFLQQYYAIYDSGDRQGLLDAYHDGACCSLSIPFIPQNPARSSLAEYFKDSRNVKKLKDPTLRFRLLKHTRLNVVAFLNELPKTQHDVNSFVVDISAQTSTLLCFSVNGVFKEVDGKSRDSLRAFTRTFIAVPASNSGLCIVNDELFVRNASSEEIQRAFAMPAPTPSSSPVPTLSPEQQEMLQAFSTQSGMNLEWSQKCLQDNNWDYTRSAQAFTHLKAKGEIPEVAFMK
Kind of test: crystal structure.

B1: NXT1 (residues 1–140) (natural protein)
chain: MASVDFKTYVDQACRAAEEFVNVYYTTMDKRRRLLSRLYMGTATLVWNGNAVSGQESLSEFFEMLPSSEFQISVVDCQPVHDEATPSQTTVLVVICGSVKFEGNKQRDFNQNFILTAQASPSNTVWKIASDCFRFQDWAS
In the case of B1, the binding result is recorded as “binds”.

Source of the values: paper PMC6754785 (Nature microbiology, 2019).
